The values that follow come from paper PMC12416549 (2024).

T1: TNFR1 (Homo sapiens, UniProt P19438)
T1 chain: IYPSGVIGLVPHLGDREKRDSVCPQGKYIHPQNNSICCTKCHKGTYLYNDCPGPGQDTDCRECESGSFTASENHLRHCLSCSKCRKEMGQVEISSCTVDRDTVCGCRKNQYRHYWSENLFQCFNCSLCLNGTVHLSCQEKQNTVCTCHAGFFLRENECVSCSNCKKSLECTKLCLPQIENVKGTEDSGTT

B1: E7W (designed binder)
chain: SMEEEVWKAAKEYEKKKKEAIEKHLEKLKAKDKEAAERFLKELEEAAKEYAKDEAKTMSEEEAKRRAKKYKEKVLLSELSEEEQKEIKEAEEKLVRTILKYVEEAAK
B2: V102F (designed binder)
chain: SMEEEVEKAAKEYEKKKKEAIEKHLEKLKAKDKEAAERFLKELEEAAKEYAKDEAKTMSEEEAKRRAKKYKEKVLLSELSEEEQKEIKEAEEKLVRTILKYFEEAAK
B3: E60K (designed binder)
chain: SMEEEVEKAAKEYEKKKKEAIEKHLEKLKAKDKEAAERFLKELEEAAKEYAKDEAKTMSKEEAKRRAKKYKEKVLLSELSEEEQKEIKEAEEKLVRTILKYVEEAAK
B4: K56N (designed binder)
chain: SMEEEVEKAAKEYEKKKKEAIEKHLEKLKAKDKEAAERFLKELEEAAKEYAKDEANTMSEEEAKRRAKKYKEKVLLSELSEEEQKEIKEAEEKLVRTILKYVEEAAK
B5: R38D (designed binder)
chain: SMEEEVEKAAKEYEKKKKEAIEKHLEKLKAKDKEAAEDFLKELEEAAKEYAKDEAKTMSEEEAKRRAKKYKEKVLLSELSEEEQKEIKEAEEKLVRTILKYVEEAAK
B6: K18P (designed binder)
chain: SMEEEVEKAAKEYEKKKPEAIEKHLEKLKAKDKEAAERFLKELEEAAKEYAKDEAKTMSEEEAKRRAKKYKEKVLLSELSEEEQKEIKEAEEKLVRTILKYVEEAAK
B7: I87E (designed binder)
chain: SMEEEVEKAAKEYEKKKKEAIEKHLEKLKAKDKEAAERFLKELEEAAKEYAKDEAKTMSEEEAKRRAKKYKEKVLLSELSEEEQKEEKEAEEKLVRTILKYVEEAAK
B8: R66F (designed binder)
chain: SMEEEVEKAAKEYEKKKKEAIEKHLEKLKAKDKEAAERFLKELEEAAKEYAKDEAKTMSEEEAKRFAKKYKEKVLLSELSEEEQKEIKEAEEKLVRTILKYVEEAAK
B9: E62M (designed binder)
chain: SMEEEVEKAAKEYEKKKKEAIEKHLEKLKAKDKEAAERFLKELEEAAKEYAKDEAKTMSEEMAKRRAKKYKEKVLLSELSEEEQKEIKEAEEKLVRTILKYVEEAAK
B10: R96F (designed binder)
chain: SMEEEVEKAAKEYEKKKKEAIEKHLEKLKAKDKEAAERFLKELEEAAKEYAKDEAKTMSEEEAKRRAKKYKEKVLLSELSEEEQKEIKEAEEKLVFTILKYVEEAAK
B11: E22Y (designed binder)
chain: SMEEEVEKAAKEYEKKKKEAIYKHLEKLKAKDKEAAERFLKELEEAAKEYAKDEAKTMSEEEAKRRAKKYKEKVLLSELSEEEQKEIKEAEEKLVRTILKYVEEAAK
B12: L99A (designed binder)
chain: SMEEEVEKAAKEYEKKKKEAIEKHLEKLKAKDKEAAERFLKELEEAAKEYAKDEAKTMSEEEAKRRAKKYKEKVLLSELSEEEQKEIKEAEEKLVRTIAKYVEEAAK
B13: K88H (designed binder)
chain: SMEEEVEKAAKEYEKKKKEAIEKHLEKLKAKDKEAAERFLKELEEAAKEYAKDEAKTMSEEEAKRRAKKYKEKVLLSELSEEEQKEIHEAEEKLVRTILKYVEEAAK
B14: V102Y (designed binder)
chain: SMEEEVEKAAKEYEKKKKEAIEKHLEKLKAKDKEAAERFLKELEEAAKEYAKDEAKTMSEEEAKRRAKKYKEKVLLSELSEEEQKEIKEAEEKLVRTILKYYEEAAK
B15: V6D (designed binder)
chain: SMEEEDEKAAKEYEKKKKEAIEKHLEKLKAKDKEAAERFLKELEEAAKEYAKDEAKTMSEEEAKRRAKKYKEKVLLSELSEEEQKEIKEAEEKLVRTILKYVEEAAK
B16: K85M (designed binder)
chain: SMEEEVEKAAKEYEKKKKEAIEKHLEKLKAKDKEAAERFLKELEEAAKEYAKDEAKTMSEEEAKRRAKKYKEKVLLSELSEEEQMEIKEAEEKLVRTILKYVEEAAK
B17: L75V (designed binder)
chain: SMEEEVEKAAKEYEKKKKEAIEKHLEKLKAKDKEAAERFLKELEEAAKEYAKDEAKTMSEEEAKRRAKKYKEKVVLSELSEEEQKEIKEAEEKLVRTILKYVEEAAK
B18: D32I (designed binder)
chain: SMEEEVEKAAKEYEKKKKEAIEKHLEKLKAKIKEAAERFLKELEEAAKEYAKDEAKTMSEEEAKRRAKKYKEKVLLSELSEEEQKEIKEAEEKLVRTILKYVEEAAK
B19: D53Q (designed binder)
chain: SMEEEVEKAAKEYEKKKKEAIEKHLEKLKAKDKEAAERFLKELEEAAKEYAKQEAKTMSEEEAKRRAKKYKEKVLLSELSEEEQKEIKEAEEKLVRTILKYVEEAAK
B20: E49H (designed binder)
chain: SMEEEVEKAAKEYEKKKKEAIEKHLEKLKAKDKEAAERFLKELEEAAKHYAKDEAKTMSEEEAKRRAKKYKEKVLLSELSEEEQKEIKEAEEKLVRTILKYVEEAAK
B21: A51Y (designed binder)
chain: SMEEEVEKAAKEYEKKKKEAIEKHLEKLKAKDKEAAERFLKELEEAAKEYYKDEAKTMSEEEAKRRAKKYKEKVLLSELSEEEQKEIKEAEEKLVRTILKYVEEAAK
B22: K93I (designed binder)
chain: SMEEEVEKAAKEYEKKKKEAIEKHLEKLKAKDKEAAERFLKELEEAAKEYAKDEAKTMSEEEAKRRAKKYKEKVLLSELSEEEQKEIKEAEEILVRTILKYVEEAAK
B23: E42R (designed binder)
chain: SMEEEVEKAAKEYEKKKKEAIEKHLEKLKAKDKEAAERFLKRLEEAAKEYAKDEAKTMSEEEAKRRAKKYKEKVLLSELSEEEQKEIKEAEEKLVRTILKYVEEAAK
B24: K85W (designed binder)
chain: SMEEEVEKAAKEYEKKKKEAIEKHLEKLKAKDKEAAERFLKELEEAAKEYAKDEAKTMSEEEAKRRAKKYKEKVLLSELSEEEQWEIKEAEEKLVRTILKYVEEAAK
B25: E78V (designed binder)
chain: SMEEEVEKAAKEYEKKKKEAIEKHLEKLKAKDKEAAERFLKELEEAAKEYAKDEAKTMSEEEAKRRAKKYKEKVLLSVLSEEEQKEIKEAEEKLVRTILKYVEEAAK
B26: E19S (designed binder)
chain: SMEEEVEKAAKEYEKKKKSAIEKHLEKLKAKDKEAAERFLKELEEAAKEYAKDEAKTMSEEEAKRRAKKYKEKVLLSELSEEEQKEIKEAEEKLVRTILKYVEEAAK
B27: L25N (designed binder)
chain: SMEEEVEKAAKEYEKKKKEAIEKHNEKLKAKDKEAAERFLKELEEAAKEYAKDEAKTMSEEEAKRRAKKYKEKVLLSELSEEEQKEIKEAEEKLVRTILKYVEEAAK
B28: K56S (designed binder)
chain: SMEEEVEKAAKEYEKKKKEAIEKHLEKLKAKDKEAAERFLKELEEAAKEYAKDEASTMSEEEAKRRAKKYKEKVLLSELSEEEQKEIKEAEEKLVRTILKYVEEAAK
B29: S1E (designed binder)
chain: EMEEEVEKAAKEYEKKKKEAIEKHLEKLKAKDKEAAERFLKELEEAAKEYAKDEAKTMSEEEAKRRAKKYKEKVLLSELSEEEQKEIKEAEEKLVRTILKYVEEAAK
B30: A36R (designed binder)
chain: SMEEEVEKAAKEYEKKKKEAIEKHLEKLKAKDKEARERFLKELEEAAKEYAKDEAKTMSEEEAKRRAKKYKEKVLLSELSEEEQKEIKEAEEKLVRTILKYVEEAAK
B31: K11N (designed binder)
chain: SMEEEVEKAANEYEKKKKEAIEKHLEKLKAKDKEAAERFLKELEEAAKEYAKDEAKTMSEEEAKRRAKKYKEKVLLSELSEEEQKEIKEAEEKLVRTILKYVEEAAK
B32: R65G (designed binder)
chain: SMEEEVEKAAKEYEKKKKEAIEKHLEKLKAKDKEAAERFLKELEEAAKEYAKDEAKTMSEEEAKGRAKKYKEKVLLSELSEEEQKEIKEAEEKLVRTILKYVEEAAK
B33: A55I (designed binder)
chain: SMEEEVEKAAKEYEKKKKEAIEKHLEKLKAKDKEAAERFLKELEEAAKEYAKDEIKTMSEEEAKRRAKKYKEKVLLSELSEEEQKEIKEAEEKLVRTILKYVEEAAK

This experiment addresses T1, TNFR1. Nature of the experiment: yeast display SC50.
For B1, the “apparent Kd (screen)” value turned out to be 12.5 nM.
In the case of B2 it was 10.4 nM; in that of B3, 1.69 nM; in that of B4, 4.39 nM.
For B5, the “apparent Kd (screen)” value was found to be 3 nM.
In the case of B6 it was 5.84 nM; in that of B7, 9.41 nM.
The value for B8 was 22.2 nM; that for B9 was 0.446 nM; that for B10 was 2.48 nM.
In the case of B11 it was 1.27 nM.
Regarding B12, the “apparent Kd (screen)” value turned out to be 16.7 nM.
Regarding B13, the “apparent Kd (screen)” value worked out at 0.49 nM.
The value for B14 was 2.73 nM; that for B15 was 13.8 nM; that for B16 was 0.956 nM.
In the case of B17, the “apparent Kd (screen)” value is 0.446 nM.
Consider B18, for which the “apparent Kd (screen)” value came to 4.83 nM.
In the case of B19 it was 2.05 nM; in that of B20, 10.4 nM.
In the case of B21 it was 0.49 nM; in that of B22, 1.69 nM; in that of B23, 7.78 nM.
The value for B24 was 0.446 nM; that for B25 was 0.593 nM.
On to B26, for which the “apparent Kd (screen)” value was 0.446 nM.
In the case of B27 it was 0.539 nM; in that of B28, 7.78 nM; in that of B29, 0.49 nM.
In the case of B30 it was 0.718 nM.
In the case of B31 it was 0.446 nM; in that of B32, 0.956 nM; in that of B33, 3 nM.
